Results as given in article PMC9965216.

Target: wild-type GroEL chaperonin (GroEL14) (E. coli) (UniProt P0A6F5)
Assay: SDS-PAGE band intensity + absorption spectrophotometry; purified GroEL14-EGFP population assembled in vivo by coexpression; Coomassie-stained bands of WT GroEL (~60 kDa) and GroEL-EGFP (~90 kDa); absorption at 280 and 489 nm
Conditions: scale: WT subunits per fusion GroEL-EGFP subunit

wild-type GroEL chaperonin (GroEL14) (E. coli), sequence (P0A6F5 whole entry): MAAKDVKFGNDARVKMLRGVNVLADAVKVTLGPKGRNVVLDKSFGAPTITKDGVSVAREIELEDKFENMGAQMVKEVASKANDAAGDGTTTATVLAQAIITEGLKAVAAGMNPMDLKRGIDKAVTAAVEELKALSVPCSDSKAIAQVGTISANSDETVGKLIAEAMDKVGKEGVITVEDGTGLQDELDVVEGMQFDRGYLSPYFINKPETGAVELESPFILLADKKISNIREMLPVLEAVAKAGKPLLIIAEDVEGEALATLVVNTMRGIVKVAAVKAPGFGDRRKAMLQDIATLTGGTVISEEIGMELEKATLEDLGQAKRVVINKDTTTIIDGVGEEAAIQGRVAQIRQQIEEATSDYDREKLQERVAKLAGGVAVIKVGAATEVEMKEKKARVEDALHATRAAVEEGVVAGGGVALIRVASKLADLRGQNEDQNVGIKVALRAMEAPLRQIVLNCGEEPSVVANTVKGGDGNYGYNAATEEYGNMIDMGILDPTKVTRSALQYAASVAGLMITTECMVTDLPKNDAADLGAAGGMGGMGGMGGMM

stoichiometry N: 12
Substance: GroEL-EGFP fusion subunit (from UniProt P0A6F5 1-548; P42212 2-238)
